Assay results from paper PMC10238842 (Molecular Therapy. Methods & Clinical Development, 2023).
Changes are numbered by the printed parent chain. Names may count otherwise.

B1: AAV1 VP3 (VP3M, VP3 203-736) of the AAV1-VP3-only capsid (natural protein, adeno-associated virus serotype 1 (AAV1), UniProt Q9WBP8 204-736, looked up)
chain: ASGGGAPMADNNEGADGVGNASGNWHCDSTWLGDRVITTSTRTWALPTYNNHLYKQISSASTGASNDNHYFGYSTPWGYFDFNRFHCHFSPRDWQRLINNNWGFRPKRLNFKLFNIQVKEVTTNDGVTTIANNLTSTVQVFSDSEYQLPYVLGSAHQGCLPPFPADVFMIPQYGYLTLNNGSQAVGRSSFYCLEYFPSQMLRTGNNFTFSYTFEEVPFHSSYAHSQSLDRLMNPLIDQYLYYLNRTQNQSGSAQNKDLLFSRGSPAGMSVQPKNWLPGPCYRQQRVSKTKTDNNNSNFTWTGASKYNLNGRESIINPGTAMASHKDDEDKFFPMSGVMIFGKESAGASNTALDNVMITDEEEIKATNPVATERFGTVAVNFQSSSTDPATGDVHAMGALPGMVWQDRDVYLQGPIWAKIPHTDGHFHPSPLMGGFGLKNPPPQILIKNTPVPANPPAEFSATKFASFITQYSTGQVSVEIEWELQKENSKRWNPEVQYTSNYAKSANVDFTVDNNGLYTEPRPIGTRYLTRPL
modifications: N-terminal methionine M203 removed; A204 acetylated at the N terminus
B2: AAV1-M211V-VP3 (VP3 of the AAV1-M211V-VP3-only capsid) (natural protein, adeno-associated virus serotype 1 (AAV1), UniProt Q9WBP8 204-736, looked up)
chain: B1 chain with M8V
modifications: N-terminal acetylation (NTA)

Target: the molecule itself
Experiment: native MS

Protein	stoichiometry N	binding result
B1	60	
B2		binds
